Data published in the nanobody polyreactivity screen of Harvey et al. (2022).

Assay: yeast display, Sf9 membrane polyspecificity reagent, FACS + sequencing; frameworks hold sequencing errors
Outline: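 A synthetic nanobody library was expressed on Saccharomyces cerevisiae BJ5465 by galactose induction for 36–48 hours. The library was stained for 1 hour at 4 °C with 10% biotinylated, detergent-solubilized Sf9 membrane reagent and enriched with streptavidin microbeads before FACS. Low and high (top ~1%) gates were set on anti-HA fluorescence for expression and streptavidin fluorescence for reagent binding, and each polyreactivity label reflects the gate of origin.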

With “QVQLVESGGGLVQAGGSLRLSCAASGSTFFWYAMGRYRQAPGKERELVAAISKTGGSTYYADSVKGRFTISRDNAKNTFYLQMNSLKPEDTAVYYCNAVPYASKAARSFDYWGQGTQVTVSS” as the sequence, how does the “polyreactivity (PSR sort gate)” value read?
The value was “low polyreactivity”.

For “QVQLVESGGGLVQAGGSLRLSCAASGSTFFWYGMGWYRQAPGKERELVAAISSDGSTYYADSVKGRFTISRDNAKNTVYLQMNSLKPEDTAVYYCAAQIPWYIYPGSYTMDYWGQGTQVTVSS”, which “polyreactivity (PSR sort gate)” value is on record?
Its value is “low polyreactivity”.

Which “polyreactivity (PSR sort gate)” value does the source give for “QVQLVESGGGLVQAGGSLRLSCAASGSTFFYNAMGWYRQAPGKERELVAAMSLSGGSITYYADSVKGRFTISRDNANNTVYLQMNSLKPEDTAVYYCAADSQATSYGLDYWGQGTQVTVSS” here?
Its value is “low polyreactivity”.

For “QVQLVESGGGLVQAGGSLRLSCAASGSTFFYNAMGWYRQAPGKERELVASINDRAGRTYYADSVKGRFTISRDNAKNTVYLQMNSLKPEDTAVYYCAAEPWYKFDYDYWGQGTQVTVSS”, which “polyreactivity (PSR sort gate)” value is on record?
The value was “low polyreactivity”.

Which “polyreactivity (PSR sort gate)” value does the source give for “QVQLVESGGGLVQAGGSLRLSCAASGSTFFYYAMGWYRKAPGKERDFVAAISKSGGRTYYADTVKGRFTISRDNAKNTVYLQMNSLKPEDTAVYYCAAYYEYRRDYWGQCTQVTVSS” here?
The value was “high polyreactivity”.

Which “polyreactivity (PSR sort gate)” value does the source give for “QVQLVESGGGLVQAGGSLRLSCAASGSTFFYYTMGWYRQAPGKERELVAAISRGGRTNYADSVKGRFTISRDNAKNTVYLLMNSLKREDTAVFYCIADAWSFRQYWGRYDYWGQGTQVTVSS” here?
The value was “high polyreactivity”.

For “QVQLVESGGGLVQAGGSLRLSCAASGSTFGANALGWYRQAPGKERELVAAITGGSTFYADSVKGRFTISRDNAKNTVYLQMNSLKPEDTSVYYCAVDYTYSYVDYWSEYDYWGQGTQVTVSS”, which “polyreactivity (PSR sort gate)” value is on record?
The value was “low polyreactivity”.

Which “polyreactivity (PSR sort gate)” value does the source give for “QVQLVESGGGLVQAGGSLRLSCAASGSTFGANAMGWYRQAPGKEREFVAAISRSGVRTYYADSVKGRFTISRDNAKNTVYLKLNSLKPEDTAVYYCAADGYWWTYTRYDYWGQGTQVTVSS” here?
The value was “low polyreactivity”.

For “QVQLVESGGGLVQAGGSLRLSCAASGSTFGANAMGWYRQAPGKEREFVAAISRSGVRTYYADSVKGRFTISRDNAKNTVYLQMNSLKPEDTAVYYCAADGYWWTYKGQYDYWGQGTQVTVSS”, which “polyreactivity (PSR sort gate)” value is on record?
The value was “low polyreactivity”.

Which “polyreactivity (PSR sort gate)” value does the source give for “QVQLVESGGGLVQAGGSLRLSCAASGSTFGANPMGWYRQAPGKEREFVAAISGSGTTTYYADSVKGRFTISRDNAKNTVYLQMNSLKTEDTAVYYCAKTRKAHWLEYWGQGTQVTVSS” here?
Its value is “low polyreactivity”.

With “QVQLVESGGGLVQAGGSLRLSCAASGSTFGDNAMGWYRQAPGKERELVAVITSDTSTYYADSVKGRFTISRDNAKNTVYLQMNSLKPEDTAVYYCAADWGGLWFWYEYWGQGTQVTVSS” as the sequence, how does the “polyreactivity (PSR sort gate)” value read?
The value was “low polyreactivity”.

With “QVQLVESGGGLVQAGGSLRLSCAASGSTFGDNAMVWYRQAPGKERELVAAITFRDGITYYADSVKGRITISRDNAKNSVYLQMNSLKPEDTAFYYCAKGVHRRWYYGYGYWGQGTQVTVSS” as the sequence, how does the “polyreactivity (PSR sort gate)” value read?
The value was “high polyreactivity”.

For “QVQLVESGGGLVQAGGSLRLSCAASGSTFGDNTMGWYRQAPGKERELVASISKSGGSTYYADSVKGRFTISRDNAKNTVYLQMNSLKPEDTAVYYCNRVTHYIRFDYWGQGTQVTVSS”, which “polyreactivity (PSR sort gate)” value is on record?
Its value is “low polyreactivity”.

Which “polyreactivity (PSR sort gate)” value does the source give for “QVQLVESGGGLVQAGGSLRLSCAASGSTFGDYAMGWYRQAPGKERELVAAMSRGGSTYYADSVKGRFTISRDNAKNTVYLQMNSLKPEDTAVYYCNKDEGYSASPDGSTFDYWGQGTQVTVSS” here?
Its value is “low polyreactivity”.

For “QVQLVESGGGLVQAGGSLRLSCAASGSTFGEYAMGWYRQAPGKERELVASITFSAGSTDYADSVKGRFTISRDNAKNTVFLQMNSLKPEDTSVYYCAADGWWPWEYEYWGQGTQVTVSS”, which “polyreactivity (PSR sort gate)” value is on record?
The value was “low polyreactivity”.

For “QVQLVESGGGLVQAGGSLRLSCAASGSTFGFNAMGWYRQAPGKERELLPLFWSGGSTYYADSVKGRFTISRDNAKNTVYLQMNSLKPEDTAVYYCNKDSPPITRYDYWGQGTQVTVSS”, which “polyreactivity (PSR sort gate)” value is on record?
The value was “low polyreactivity”.

For “QVQLVESGGGLVQAGGSLRLSCAASGSTFGFYAMGWYRQAPGKERELVAAISGRGGSTYYADSVKGRFTISRDNAKNTVYLQMNSLKPEDTAVYYCNADWQDDLAGYVVDYWGLGTQVTVSS”, which “polyreactivity (PSR sort gate)” value is on record?
Its value is “low polyreactivity”.
